According to the supplement of paper PMC9170038:

Test system: MS2 coat protein
Test: apparent KD of MS2 coat protein; designed switch direction (-1 OFF switch, 1 ON switch): 1; higher = weaker reporter binding
Method in brief: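 RNA switches sharing common flanks were transcribed by stalled E. coli RNA polymerase on Illumina chips. A doubling series of SNAP-549-labelled MS2 coat protein, from 0.7 or 1.5 nM to 3 µM, was applied in Tris-HCl pH 7.5 buffer with KCl, MgCl2, BSA, DTT, tRNA and Tween-20. Each step lasted 0.8–1.5 h at the bottom of the series and 10–20 min at the top. Normalised cluster fluorescence was curve-fitted, giving apparent KD as the per-design median over clusters.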

[1] = input ligand: microRNA oligo, concentration not stated
[2] = Eterna round: R95, input ligand: microRNA oligo, concentration not stated

Sequence | apparent KD of MS2 coat protein [1] | apparent KD of MS2 coat protein [2] | apparent KD of MS2 coat protein (input ligand: FMN 200 uM) | apparent KD of MS2 coat protein (input ligand: none)
GAGUGGUAGAGAGGAUAUGCAUUGUUAUUAAAUGCAGAAGGUUUUAACAUGAGGAUCACCCAUGUAGGACUAUUCCUGUGUUUC [Parity 66 - Jieux - Same State NG 1] (Eterna round: R96, puzzle: Same State NG 1) | 0.0108 µM | – | – | –
GCAGGACAUGAGGAUCACCCAUGUUCAAAAUAUUGAGGAUAUGGAUACGGUAUAUCCGAACCAGAAGGCAACCUGC [SS1 Teenbexe 22] (puzzle: Same State 1) | – | 0.0166 µM | – | –
GCAUGAGAGAUAGGAUAUCGUGUACCUACAUGUGACAUGAGGAUCACCCAUGUGGUAAGUAUGAGCGAGAAGGAUCCGAUAUGU [salish99_SSNG2_r04_1002] (Eterna round: R96, puzzle: Same State NG 2) | 0.0444 µM | – | 0.0266 µM | 0.0609 µM
GCAUGGUUACAUGCUAUACAUGAGGAUCACCCAUGUGAUGGGAAGGAUAUGUCCUCAAUUAGUGGACAGAAGGUCCAAACAUUU [Fiskers NG3ss - 1] (Eterna round: R96, puzzle: Same State NG 3) | 0.234 µM | – | 0.136 µM | 0.939 µM
GCCAUCGCAUGAGGAUAUGGCACCGUUUCGGUGCCAGAAGGCAUGUCAAAUGACAUGAGGAUCACCCAUGUAGUUAAGAUGGCA [JL Fiskers NG1ss - 33 mod 9] (Eterna round: R96, puzzle: Same State NG 1) | 0.417 µM | – | 0.0292 µM | 0.542 µM
GCCAUCGUAUGAGGAUAUGGCACCGUUUCGGUGCCAGAAGGCAUGUCAAUUGACAUGAGGAUCACCCAUGUAUUUUCGAUGGCA [JL Fiskers NG1ss - 33 mod 11] (Eterna round: R96, puzzle: Same State NG 1) | 0.385 µM | – | 0.0746 µM | 0.779 µM
GCCAUCGUGUGAGGAUAUGGCACCGUUUCGGUGCCAGAAGGCAUGUCAAUUGACAUGAGGAUCACCCAUGUAUUAGCGAUGGCA [JL Fiskers NG1ss - 33 mod 3] (Eterna round: R96, puzzle: Same State NG 1) | 0.292 µM | – | 0.159 µM | 0.988 µM
GCCGGCUGGUGAGGAUAUGGCGCCUUAUUGGUGCCAGAAGGCAUGUCAAUUGACAUGAGGAUCACCCAUGUGUUGUCGUUGGCG [salish99_SSNG1_r04_610] (Eterna round: R96, puzzle: Same State NG 1) | 0.357 µM | – | 0.695 µM | 0.353 µM
GCGAAAGCCGUAGGAUAUGUAGGAUAUGGCGAGAGCUAAGCUUGGAAGUCACUUCAGCCAGAAGGACAGAAGGACGCCGAAAGG [pwkr ssNG2 2FMN + F9.15] (Eterna round: R96, puzzle: Same State NG 2) | 0.387 µM | – | 1.41 µM | 0.0462 µM
GCGAGCGUACUUGCAGACAUGAGGAUCACCCAUGUAAAUGGGAAGGAUAUGGUACCGUUUCGGUACCAGAAGGUCCUAAGUGAU [salish99_SSNG3_r04_301] (Eterna round: R96, puzzle: Same State NG 3) | 1.08 µM | – | 0.665 µM | 1.13 µM
GCGCAGCCGGGUGAGGAUAUCGGUGGUAAAACAUGAGGAUCACCCAUGUCCGAAGCUCGGACUUCCGAGAAGGCGCCCAGCUGCA [Erisin] (puzzle: Same State 2) | – | 0.0612 µM | – | –
GCUAGAAAUAAAGCCAACAUGAGGAUCACCCAUGUAUGUUGGCAGGAUAUCGUUUGCAAAGCAAACGAGAAGGGCUAAACUAGC [Mat - Same State NG 3 - JL Mod - D5] (Eterna round: R96, puzzle: Same State NG 3) | 0.138 µM | – | 0.141 µM | 0.147 µM
GCUAGGAAUAAAGCCAACAUGAGGAUCACCCAUGUAUGUUGGUAGGAUAUCGUUUGCUUUGCAAACGAGAAGGGCUAACCUAGC [JL SSNG3 1.24] (Eterna round: R96, puzzle: Same State NG 3) | 0.0645 µM | – | 0.0746 µM | 0.0675 µM
GCUAGGAUAUGCAGAGGAUCACCCUGUAGAAGGAGCAUUAGCUAGGAUAUGCAGAGGAUCACCCUGUAGAAGGAGCACUACUCU [pwkr ssNG3 DX 2xF5 +2xFMN.1] (Eterna round: R96, puzzle: Same State NG 3) | 0.205 µM | – | 0.445 µM | 0.248 µM
GCUAGUAUUAUUGCUAACAUGAGGAUCACCCAUGUAUGUUGGCAGGAUAUCGUUUGCUUUGCAAACGAGAAGGGCUAAACUAGC [JL SSNG3 1.05] (Eterna round: R96, puzzle: Same State NG 3) | 0.0654 µM | – | 0.0258 µM | 0.0717 µM
GCUCGAUGAAAGUCCUACAUGAGGAUCACCCAUGUACGUGGGCAGGAUAUCUACAUGCAGAGUGUAGAGAAGGGCCCAUCGAGC [SameState NG3 #60] (Eterna round: R96, puzzle: Same State NG 3) | 0.0226 µM | – | 0.0186 µM | 0.0349 µM
GCUCGAUGAUAGGCCUACAUGAGGAUCACCCAUGUAAGUGGGCAGGAUAUCUAAAUGCAGAAUGUAGAGAAGGGCCCGUCGAGC [SameState NG3 #54] (Eterna round: R96, puzzle: Same State NG 3) | 0.239 µM | – | 0.612 µM | 1.46 µM
GCUCGAUGAUAGGCCUACAUGAGGAUCACCCAUGUGACUGGGCAGGAUAUCUAAAUGCAGAAUGUAGAGAAGGGCCCGUCGAGC [SameState NG3 #52] (Eterna round: R96, puzzle: Same State NG 3) | 0.0695 µM | – | 0.269 µM | 0.409 µM
GCUCGGACGAUGACCCACAUGAGGAUCACCCAUGUGCUUGGGCAGGAUAUCUAGAUUAAGGAUGUAGAGAAGGGUCGACCGAGC [SameState NG3 #29] (Eterna round: R96, puzzle: Same State NG 3) | 0.0903 µM | – | 0.345 µM | 0.211 µM
GCUCGUAUCACGACCGACAUGAGGAUCACCCAUGUAUGUUGGUAGGAUAUCUAUAUUAAGGAUAUAGAGAAGGGCCGAACGAGC [SameState NG3 #14] (Eterna round: R96, puzzle: Same State NG 3) | 0.0248 µM | – | 0.0235 µM | 0.0301 µM
GCUCGUAUGAUGACCGACAUGAGGAUCACCCAUGUGUGUCGGUAGGAUAUCUAUAUUAAGGAUAUAGAGAAGGGCCCAACGAGC [SameState NG3 #18] (Eterna round: R96, puzzle: Same State NG 3) | 0.103 µM | – | 0.114 µM | 0.158 µM
GCUGCAAUAAACGCCUACAUGAGGAUCACCCAUGUAUGUAGGCAGGAUAUCGUAUGCAAAGCAUACGAGAAGGGCUGUAGUAGC [Mat - Same State NG 3 - JL Mod - D39] (Eterna round: R96, puzzle: Same State NG 3) | 0.0973 µM | – | 0.0653 µM | 0.112 µM
GCUGCAUGGGCAGGAUAUGGGUCCAAAGCGCAAGUGCGCUUUGGUACAUGAGGAUCACCCAUGUCCCAGAAGGGCCCAAGCGGC [Inorgeesbi] (Eterna round: R96, puzzle: Same State NG 2) | 0.0879 µM | – | 0.0164 µM | 0.145 µM
GCUGCGUUUAACGCCUACAUGAGGAUCACCCAUGUAUGUAGGCAGGAUAUCGUUUGCUUUGCAAACGAGAAGGGCUGUAGUAGC [salish99_SSNG3_R04_005] (Eterna round: R96, puzzle: Same State NG 3) | 0.085 µM | – | 0.0416 µM | 0.0738 µM
GCUGGAAACCACAUGAGGAUCACCCAUGUUCCGGAAACGGCACAGGAUAUCUGUCCGAAAAGGUCAGAGAAGGGUGGAACCAGC [Fiskers NG3ss - 82] (Eterna round: R96, puzzle: Same State NG 3) | 0.35 µM | – | 0.221 µM | 0.393 µM
GCUGGAACUCACAUGAGGAUCACCCAUGUUCCGGAAACGGCACAGGAUAUCUGUCCGAAAAGGUCAGAGAAGGGUGUAACCAGC [Fiskers NG3ss - 87] (Eterna round: R96, puzzle: Same State NG 3) | 0.051 µM | – | 0.137 µM | 0.0888 µM
GGAAACAAGAGAGGAUAUGCAGAGGAUCACCCUGUAGAAGGCUCCCUAGAGAGGAUAUGCAGAGGAUCACCCUGCAGAAGGCUC [pwkr ssNG DX.18] (Eterna round: R96, puzzle: Same State NG 1) | 0.0277 µM | – | 0.227 µM | 0.0891 µM
